Measurements taken from article PMC9482650, “Quantitative fragmentomics allow affinity mapping of interactomes” (Nature Communications, 2022).

T1: APBA2_2, Q99767
T1 sequence (Q99767 654-744, limits assumed, looked up): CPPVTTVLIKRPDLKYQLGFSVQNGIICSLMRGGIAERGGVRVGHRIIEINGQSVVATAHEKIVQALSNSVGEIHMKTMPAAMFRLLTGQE

T2: GRIP1_3, Q9Y3R0
T2 sequence (Q9Y3R0 247-346, limits assumed, looked up): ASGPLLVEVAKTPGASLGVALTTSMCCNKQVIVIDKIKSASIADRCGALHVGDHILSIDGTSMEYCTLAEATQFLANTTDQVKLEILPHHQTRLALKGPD

T3: HTRA4, P83105
T3 sequence (P83105 378-476, limits assumed, looked up): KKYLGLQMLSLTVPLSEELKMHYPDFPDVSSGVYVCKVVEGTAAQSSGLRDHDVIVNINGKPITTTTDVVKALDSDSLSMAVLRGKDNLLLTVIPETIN

T4: LNX2_3, Q8N448
T4 sequence (Q8N448 463-564, limits assumed, looked up): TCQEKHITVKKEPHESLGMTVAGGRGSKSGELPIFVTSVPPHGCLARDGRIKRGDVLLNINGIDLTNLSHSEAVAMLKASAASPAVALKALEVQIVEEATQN

T5: LRRC7, Q96NW7
T5 sequence (Q96NW7 1440-1537, limits assumed, looked up): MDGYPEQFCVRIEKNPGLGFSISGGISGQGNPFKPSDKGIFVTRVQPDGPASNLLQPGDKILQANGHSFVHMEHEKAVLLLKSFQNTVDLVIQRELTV

T6: MPDZ_5, O75970
T6 sequence (O75970 695-796, limits assumed, looked up): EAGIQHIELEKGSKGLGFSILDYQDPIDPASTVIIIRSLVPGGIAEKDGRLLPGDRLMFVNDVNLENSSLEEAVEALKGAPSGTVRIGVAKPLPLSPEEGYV

T7: MPP6, Q9NZW5
T7 sequence (Q9NZW5 125-219, limits assumed, looked up): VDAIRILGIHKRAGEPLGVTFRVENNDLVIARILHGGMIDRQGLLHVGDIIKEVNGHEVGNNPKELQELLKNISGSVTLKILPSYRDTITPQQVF

T8: RAPGEF6, Q8TEU7
T8 sequence (Q8TEU7 525-625, limits assumed, looked up): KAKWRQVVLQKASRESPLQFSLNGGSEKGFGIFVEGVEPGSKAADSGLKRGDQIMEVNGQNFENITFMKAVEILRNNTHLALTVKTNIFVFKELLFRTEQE

T9: SIPA1L2, Q9P2F8
T9 sequence (Q9P2F8 945-1036, limits assumed, looked up): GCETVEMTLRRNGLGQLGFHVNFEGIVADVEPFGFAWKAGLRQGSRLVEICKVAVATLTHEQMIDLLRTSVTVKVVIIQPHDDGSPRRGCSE

T10: SNTB1, Q13884
T10 sequence (Q13884 107-205, limits assumed, looked up): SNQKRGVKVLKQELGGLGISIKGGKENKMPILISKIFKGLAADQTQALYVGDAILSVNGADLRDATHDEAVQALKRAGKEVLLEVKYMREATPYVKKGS

T11: TIAM2, Q8IVF5
T11 sequence (Q8IVF5 885-986, limits assumed, looked up): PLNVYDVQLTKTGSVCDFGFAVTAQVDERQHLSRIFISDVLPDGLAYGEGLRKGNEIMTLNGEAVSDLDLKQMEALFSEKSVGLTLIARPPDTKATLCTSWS


Experiments:
Assay in all cases: holdup assay
Set-up in all cases: key: below the threshold = too weak to quantify, mostly under pKd 3.1 to 4
Conditions in all cases: plain residues with an end cap or a label only (N-terminal biotin on a linker: ado-ado)
[1] = target: T1, APBA2_2, Q99767
[2] = target: DLG1_1, Q12959
[3] = target: DLG4_1, P78352
DLG4_1, P78352, sequence (P78352 62-152): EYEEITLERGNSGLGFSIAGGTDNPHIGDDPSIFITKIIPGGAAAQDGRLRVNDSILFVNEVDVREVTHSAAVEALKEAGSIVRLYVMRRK

[4] = target: DLG4_3, P78352
DLG4_3, P78352, sequence (P78352 306-403): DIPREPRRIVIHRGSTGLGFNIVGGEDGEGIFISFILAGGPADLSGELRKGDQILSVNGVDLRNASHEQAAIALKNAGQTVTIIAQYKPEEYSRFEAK

[5] = target: FRMPD2_1, Q68DX3
FRMPD2_1, Q68DX3, sequence (Q68DX3 770-861): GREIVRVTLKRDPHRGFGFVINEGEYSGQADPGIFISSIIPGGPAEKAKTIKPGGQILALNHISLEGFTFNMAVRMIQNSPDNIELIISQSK

[6] = target: FRMPD2_2, Q68DX3
FRMPD2_2, Q68DX3, sequence (Q68DX3 944-1038): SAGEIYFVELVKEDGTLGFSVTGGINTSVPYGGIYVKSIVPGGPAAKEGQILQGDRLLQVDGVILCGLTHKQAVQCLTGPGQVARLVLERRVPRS

[7] = target: T2, GRIP1_3, Q9Y3R0
[8] = target: GRIP2_5, Q9C0E4
GRIP2_5, Q9C0E4, sequence (Q9C0E4 544-642): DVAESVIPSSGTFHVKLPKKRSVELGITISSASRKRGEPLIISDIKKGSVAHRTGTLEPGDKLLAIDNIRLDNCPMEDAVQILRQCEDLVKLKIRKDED

[9] = target: HTRA1, Q92743
HTRA1, Q92743, sequence (Q92743 360-477): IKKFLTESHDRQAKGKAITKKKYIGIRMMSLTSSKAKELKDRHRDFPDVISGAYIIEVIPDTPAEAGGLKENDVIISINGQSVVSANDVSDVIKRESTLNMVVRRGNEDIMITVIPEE

[10] = target: T3, HTRA4, P83105
[11] = target: IL16_1, Q14005
IL16_1, Q14005, sequence (Q14005 210-306): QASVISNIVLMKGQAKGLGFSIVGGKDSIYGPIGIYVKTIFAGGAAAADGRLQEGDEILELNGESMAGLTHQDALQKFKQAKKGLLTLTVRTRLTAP

[12] = target: LDB3, O75112
LDB3, O75112, sequence (O75112 1-94): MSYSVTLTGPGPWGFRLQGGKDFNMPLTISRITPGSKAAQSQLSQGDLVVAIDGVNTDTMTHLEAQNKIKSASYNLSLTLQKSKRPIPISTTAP

[13] = target: T4, LNX2_3, Q8N448
[14] = target: T5, LRRC7, Q96NW7
[15] = target: MAGI2_2, Q86UL8
MAGI2_2, Q86UL8, sequence (Q86UL8 410-522): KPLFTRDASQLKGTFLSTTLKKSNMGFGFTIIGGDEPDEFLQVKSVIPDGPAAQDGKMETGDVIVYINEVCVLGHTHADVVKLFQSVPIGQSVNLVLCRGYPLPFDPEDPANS

[16] = target: MAGI2_3, Q86UL8
MAGI2_3, Q86UL8, sequence (Q86UL8 600-682): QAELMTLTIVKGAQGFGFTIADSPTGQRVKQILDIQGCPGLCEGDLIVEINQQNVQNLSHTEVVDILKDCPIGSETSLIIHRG

[17] = target: MAST1, Q9Y2H9
MAST1, Q9Y2H9, sequence (Q9Y2H9 962-1065): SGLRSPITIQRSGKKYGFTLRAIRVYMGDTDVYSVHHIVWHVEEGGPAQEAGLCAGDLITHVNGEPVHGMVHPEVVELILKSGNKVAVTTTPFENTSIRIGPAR

[18] = target: T6, MPDZ_5, O75970
[19] = target: T7, MPP6, Q9NZW5
[20] = target: NHERF2_2, Q15599
NHERF2_2, Q15599, sequence (Q15599 142-238): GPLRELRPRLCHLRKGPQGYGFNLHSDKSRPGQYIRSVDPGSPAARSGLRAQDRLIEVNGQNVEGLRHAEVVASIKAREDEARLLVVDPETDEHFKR

[21] = target: PDLIM1, O00151
PDLIM1, O00151, sequence (O00151 1-87): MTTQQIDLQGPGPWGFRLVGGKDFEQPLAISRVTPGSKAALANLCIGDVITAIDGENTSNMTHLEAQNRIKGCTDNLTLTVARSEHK

[22] = target: PICK1, Q9NRD5
PICK1, Q9NRD5, sequence (Q9NRD5 17-115): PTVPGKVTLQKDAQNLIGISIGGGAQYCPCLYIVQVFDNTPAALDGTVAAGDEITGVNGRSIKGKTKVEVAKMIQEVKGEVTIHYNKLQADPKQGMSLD

[23] = target: PTPN3, P26045
PTPN3, P26045, sequence (P26045 505-587): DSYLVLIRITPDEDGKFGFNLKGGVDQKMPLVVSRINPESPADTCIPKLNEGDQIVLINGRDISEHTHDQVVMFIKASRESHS

[24] = target: T8, RAPGEF6, Q8TEU7
[25] = target: T9, SIPA1L2, Q9P2F8
[26] = target: T10, SNTB1, Q13884
[27] = target: T11, TIAM2, Q8IVF5

| Binder | pKd [1] | pKd [2] | pKd [3] | pKd [4] | pKd [5] | pKd [6] | pKd [7] | pKd [8] | pKd [9] | pKd [10] | pKd [11] | pKd [12] | pKd [13] | pKd [14] | pKd [15] | pKd [16] | pKd [17] | pKd [18] | pKd [19] | pKd [20] | also measured |
| --- | --- | --- | --- | --- | --- | --- | --- | --- | --- | --- | --- | --- | --- | --- | --- | --- | --- | --- | --- | --- | --- |
| ADRDHASDQL [CTBP1, Q13363] | below the threshold | below the threshold | below the threshold | below the threshold | below the threshold | below the threshold | below the threshold | below the threshold | below the threshold | 3.73 | below the threshold | below the threshold | below the threshold | below the threshold | below the threshold | below the threshold | below the threshold | below the threshold | below the threshold | 3.89 | pKd [21]: below the threshold; pKd [22]: 4.13; pKd [23]: below the threshold; pKd [24]: below the threshold; pKd [25]: below the threshold; pKd [26]: below the threshold; pKd [27]: below the threshold |
| GSSSKEGTSV [RRBP1, Q9P2E9] | below the threshold | 4.02 | 4.12 | 3.64 | below the threshold | below the threshold | below the threshold | below the threshold | 3.84 | 3.9 | below the threshold | below the threshold | below the threshold | below the threshold | 4 | 3.54 | 4.32 | below the threshold | 3.77 | 3.51 | pKd [21]: below the threshold; pKd [22]: 4.14; pKd [23]: 5.01; pKd [24]: below the threshold; pKd [25]: below the threshold; pKd [26]: 3.9; pKd [27]: below the threshold |
| VGIERETDVL [EZH1, Q92800] | below the threshold | 3.6 | below the threshold | below the threshold | below the threshold | below the threshold | below the threshold | below the threshold | 4.17 | below the threshold | below the threshold | below the threshold | below the threshold | below the threshold | below the threshold | below the threshold | below the threshold | below the threshold | below the threshold | 3.6 | pKd [21]: below the threshold; pKd [22]: 4.09; pKd [23]: 3.52; pKd [24]: below the threshold; pKd [25]: below the threshold; pKd [26]: 4.52; pKd [27]: 3.49 |
